Here are results for two proteins from patent publication US6562591.

Positions count from the first letter of the chain named.

The data set addresses Gelsolin (Sigma).

B1: HA-Tnik(WT), full length human Tnik isoform 1 with N-terminal HA epitope tag (protein)
chain: AYPYDVPDYAMASDSPARSLDEIDLSALRDPAGIFELVELVGNGTYGQVYKGRHVKTGQLAAIKVMDVTGDEEEEIKQEINMLKKYSHHRNIATYYGAFIKKNPPGMDDQLWLVMEFCGAGSVTDLIKNTKGNTLKEEWIAYICREILRGLSHLHQHKVIHRDIKGQNVLLTENAEVKLVDFGVSAQLDRTVGRRNTFIGTPYWMAPEVIACDENPDATYDFKSDLWSLGITAIEMAEGAPPLCDMHPMRALFLIPRNPAPRLKSKKWSKKFQSFIESCLVKNHSQRPATEQLMKHPFIRDQPNERQVRIQLKDHIDRTKKKRGEKDETEYEYSGSEEEEEENDSGEPSSILNLPGESTLRRDFLRLQLANKERSEALRRQQLEQQQRENEEHKRQLLAERQKRIEEQKEQRRRLEEQQRREKELRKQQEREQRRHYEEQMRREEERRRAEHEQEYIRRQLEEEQRQLEILQQQLLHEQALLLEYKRKQLEEQRQAERLQRQLKQERDYLVSLQHQRQEQRPVEKKPLYHYKEGMSPSEKPAWAKEVEERSRLNRQSSPAMPHKVANRISDPNLPPRSESFSISGVQPARTPPMLRPVDPQIPHLVAVKSQGPALTASQSVHEQPTKGLSGFQEALNVTSHRVEMPRQNSDPTSENPPLPTRIEKFDRSSWLRQEEDIPPKVPQRTTSISPALARKNSPGNGSALGPRLGSQPIRASNPDLRRTEPILESPLQRTSSGSSSSSSTPSSQPSSQGGSQPGSQAGSSERTRVRANSKSEGSPVLPHEPAKVKPEESRDITRPSRPASYKKAIDEDLTALAKELRELRIEETNRPMKKVTDYSSSSEESESSEEEEEDGESETHDGTVAVSDIPRLIPTGAPGSNEQYNVGMVGTHGLETSHADSFSGSISREGTLMIRETSGEKKRSGHSDSNGFAGHINLPDLVQQSHSPAGTPTEGLGRVSTHSQEMDSGTEYGMGSSTKASFTPFVDPRVYQTSPTDEDEEDEESSAAALFTSELLRQEQAKLNEARKISVVNVNPTNIRPHSDTPEIRKYKKRFNSEILCAALWGVNLLVGTENGLMLLDRSGQGKVYNLINRRRFQQMDVLEGLNVLVTISGKKNKLRVYYLSWLRNRILHNDPEVEKKQGWITVGDLEGCIHYKVVKYERIKFLVIALKNAVEIYAWAPKPYHKFMAFKSFADLQHKPLLVDLTVEEGQRLKVIFGSHTGFHVIDVDSGNSYDIYIPSHIQGNITPHAIVILPKTDGMEMLVCYEDEGVYVNTYGRITKDVVLQWGEMPTSVAYIHSNQIMGWGEKAIEIRSVETGHLDGVFMHKRAQRLKFLCERNDKVFFASVRSGGSSQVFFMTLNRNSMMNW
In the case of B1, the “phosphorylation of Gelsolin in an in vitro kinase assay” value is “Wild type Tnik, but not the kinase mutant form of Tnik, phosphorylated Gelsolin in vitro”.

B2: HA-Tnik(KM), kinase mutant form of Tnik with N-terminal HA epitope tag (protein)
chain: B1 chain with K64R
For B2, the “phosphorylation of Gelsolin in an in vitro kinase assay” value is listed as “Wild type Tnik, but not the kinase mutant form of Tnik, phosphorylated Gelsolin in vitro”.
